Source: patent US20180016352A1 (published 2018)

How the values were obtained:
Experiment in all cases: indirect ELISA, recombinant receptor coated, anti-c-myc HRP
[1] = target: recombinant EphA2 receptor (UniProt P29317 25-534, limits assumed)
Protocol: (§1) The target binding of the BsAbs was evaluated by indirect ELISA methods using PEG polymer and recombinant target proteins immobilized on ELISA plates. Individual wells of a 96 well Maxisorp plate were coated with 100 μL of 10 μg/mL of polymer (polyethylene glycol monomethyl ether methacrylate) or 10 μg/mL of target recombinant receptor (EphA2, VEGFR2, Mesothelin and EGFR) for 16-20 hr at 4C. PEG and target receptors were diluted in phosphate buffered saline (PBS pH 7.4). […] The blocker was decanted and 100 μL of BsAb, either in cell culture supernatant or purified protein stored in PBS, was added to each well. The BsAb was incubated for 2 hr and then decanted. The wells were washed five times manually in PBST and 100 μL of HRP labeled anti-c-myc antibody diluted 1/5000 in blocker was added to each well and incubated for 30 mins. The c-myc antibody was then decanted and the wells washed again five times manually with PBST. One hundred microliters of TMB was added to all wells and incubated for 10-15 mins or until adequate color development was identified. The TMB colorimetric reaction was neutralized by adding 100 μL of 2M sulfuric acid. The colorimetric reactions in each well was analyzed at an absorbance of 450 nm using the Spectramax plate reader.

recombinant EGFR = target: T1, recombinant EGFR (UniProt P00533 25-645, limits assumed)
T1 construct: It may be the same reagent as rEGFR-hFc; also called rEGFR
Protocol: as §1

recombinant Mesothelin = recombinant Mesothelin (UniProt Q13421 296-580, limits assumed)
recombinant Mesothelin, sequence (Q13421 other isoform, or with tags, fused parts or gaps limits assumed): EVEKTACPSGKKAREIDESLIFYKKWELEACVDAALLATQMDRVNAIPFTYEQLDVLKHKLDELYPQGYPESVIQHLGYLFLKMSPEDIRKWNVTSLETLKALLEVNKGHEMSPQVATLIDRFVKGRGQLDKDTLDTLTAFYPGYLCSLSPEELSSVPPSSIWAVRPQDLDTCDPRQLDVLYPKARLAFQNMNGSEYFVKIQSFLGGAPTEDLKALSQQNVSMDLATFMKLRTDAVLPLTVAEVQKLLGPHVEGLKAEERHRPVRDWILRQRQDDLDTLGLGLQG
Protocol: as §1

Measured: binding result

recombinant EphA2 receptor, sequence (P29317 25-534 limits assumed): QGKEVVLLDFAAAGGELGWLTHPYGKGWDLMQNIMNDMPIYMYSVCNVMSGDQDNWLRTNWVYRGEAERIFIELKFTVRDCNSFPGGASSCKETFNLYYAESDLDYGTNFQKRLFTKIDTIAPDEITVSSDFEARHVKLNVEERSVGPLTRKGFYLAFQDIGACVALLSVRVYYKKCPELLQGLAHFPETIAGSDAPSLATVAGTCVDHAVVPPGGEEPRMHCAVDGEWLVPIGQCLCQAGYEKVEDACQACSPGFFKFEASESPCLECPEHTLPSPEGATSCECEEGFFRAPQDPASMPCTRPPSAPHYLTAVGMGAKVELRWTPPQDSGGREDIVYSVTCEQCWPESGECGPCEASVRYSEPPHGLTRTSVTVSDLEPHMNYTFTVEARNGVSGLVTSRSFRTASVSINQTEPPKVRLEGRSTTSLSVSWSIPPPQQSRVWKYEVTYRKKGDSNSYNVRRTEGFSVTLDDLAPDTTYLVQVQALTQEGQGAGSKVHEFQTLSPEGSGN

B1: VEGF-15.2 (BsAb targeting VEGFR2) (other)
chain: HHHHHHEVVKFMDVYQRSYCHPIETLVDIFQEYPDEIEYIFKPSCVPLMRCGGCCNDEGLECVPTEESNITMQIMRIKPHQGQHIGEMSFLQHNKCECRPKKDGSTSGSGKSSEGKGEVVKFMDVYQRSYCHPIETLVDIFQEYPDEIEYIFKPSCVPLMRCGGCCNDEGLECVPTEESNITMQIMRIKPHQGQHIGEMSFLQHNKCECRPKKDSGGGGSEVKLEESGGGLVQPGGSMKLSCVASGFTFSNYWMNWVRQSPEKGLEWVTEIRSKSNNYATHYAESVKGRFTISRDDSKGSVYLQMNNLRAEDTGIYYCSNRYYWGQGTLVTVSAGGGGSGGGGSGGGGSDIVMTQSHKFMSTSVRDRVTITCKASQDVNTSVAWYQQKPGQSPKLVIYWASTRHTGVPDRFTGSGSGTDFTLTISNVQSEDLADYFCLQYINYPYTFGGGTKLEIKEQKLISEEDLN
no binding: [1] | recombinant EGFR | recombinant Mesothelin
